From patent US8258099B2, “Pin1-modulating compounds and methods of use thereof” (Max-Planck-Gesellschaft zur Foerderung der Wissenschaften …, priority 2004, dated 2012)
Square brackets hold non-standard residues; d marks the D form. Peptide text beside a SMILES is read from it. * marks the point of attachment. Biotin = O=C1N[C@H]2[C@H](CS[C@H]2CCCCC(=O)*)N1; Phe(4-tBu) = CC(C)(C)c1ccc(C[C@H](N)C(=O)O)cc1; Bip = N[C@@H](Cc1ccc(-c2ccccc2)cc1)C(=O)O; pT = C[C@@H](OP(=O)(O)O)[C@H](N)C(=O)O; 2Nal = N[C@@H](Cc1ccc2ccccc2c1)C(=O)O; Bta = N[C@@H](Cc1csc2ccccc12)C(=O)O; Tic = O=C(O)[C@@H]1Cc2ccccc2CN1; 2Thi = N[C@@H](Cc1cccs1)C(=O)O; Cha = N[C@@H](CC1CCCCC1)C(=O)O; Tle = CC(C)(C)[C@H](N)C(=O)O; NMeA = CN[C@@H](C)C(=O)O

B1: peptide 12 (peptide)
peptide: Ac-K(Biotin)AAF[pT][NMeA][Bta]Q-NH2
SMILES: CC(=O)N[C@@H](CCCCNC(=O)CCCC[C@@H]1SC[C@@H]2NC(=O)N[C@@H]21)C(=O)N[C@@H](C)C(=O)N[C@@H](C)C(=O)N[C@@H](Cc1ccccc1)C(=O)N[C@H](C(=O)N(C)[C@@H](C)C(=O)N[C@@H](Cc1csc2ccccc12)C(=O)N[C@@H](CCC(N)=O)C(N)=O)[C@@H](C)OP(=O)(O)O
B2: peptide 1 (peptide)
peptide: Ac-K(Biotin)AA[Phe(4-tBu)][pT]P[2Nal]Q-NH2
SMILES: CC(=O)N[C@@H](CCCCNC(=O)CCCC[C@@H]1SC[C@@H]2NC(=O)N[C@@H]21)C(=O)N[C@@H](C)C(=O)N[C@@H](C)C(=O)N[C@@H](Cc1ccc(C(C)(C)C)cc1)C(=O)N[C@H](C(=O)N1CCC[C@H]1C(=O)N[C@@H](Cc1ccc2ccccc2c1)C(=O)N[C@@H](CCC(N)=O)C(N)=O)[C@@H](C)OP(=O)(O)O
B3: peptide 14 (peptide)
peptide: Ac-K(Biotin)AA[Cha][pT][Tic][2Nal]Q-NH2
SMILES: CC(=O)N[C@@H](CCCCNC(=O)CCCC[C@@H]1SC[C@@H]2NC(=O)N[C@@H]21)C(=O)N[C@@H](C)C(=O)N[C@@H](C)C(=O)N[C@@H](CC1CCCCC1)C(=O)N[C@H](C(=O)N1Cc2ccccc2C[C@H]1C(=O)N[C@@H](Cc1ccc2ccccc2c1)C(=O)N[C@@H](CCC(N)=O)C(N)=O)[C@@H](C)OP(=O)(O)O
B4: peptide 10 (peptide)
peptide: Ac-K(Biotin)AA[2Thi][pT][NMeA][2Nal]Q-NH2
SMILES: CC(=O)N[C@@H](CCCCNC(=O)CCCC[C@@H]1SC[C@@H]2NC(=O)N[C@@H]21)C(=O)N[C@@H](C)C(=O)N[C@@H](C)C(=O)N[C@@H](Cc1cccs1)C(=O)N[C@H](C(=O)N(C)[C@@H](C)C(=O)N[C@@H](Cc1ccc2ccccc2c1)C(=O)N[C@@H](CCC(N)=O)C(N)=O)[C@@H](C)OP(=O)(O)O
B5: peptide 13 (peptide)
peptide: Ac-K(Biotin)AA[Phe(4-tBu)][pT][Tic][Bta]Q-NH2
SMILES: CC(=O)N[C@@H](CCCCNC(=O)CCCC[C@@H]1SC[C@@H]2NC(=O)N[C@@H]21)C(=O)N[C@@H](C)C(=O)N[C@@H](C)C(=O)N[C@@H](Cc1ccc(C(C)(C)C)cc1)C(=O)N[C@H](C(=O)N1Cc2ccccc2C[C@H]1C(=O)N[C@@H](Cc1csc2ccccc12)C(=O)N[C@@H](CCC(N)=O)C(N)=O)[C@@H](C)OP(=O)(O)O

Molecular target: full-length hPin1 (human, UniProt Q13526 1-163)
Test: cell-based or functional assay
Settings: not given

Chain of full-length hPin1 (Q13526 whole entry): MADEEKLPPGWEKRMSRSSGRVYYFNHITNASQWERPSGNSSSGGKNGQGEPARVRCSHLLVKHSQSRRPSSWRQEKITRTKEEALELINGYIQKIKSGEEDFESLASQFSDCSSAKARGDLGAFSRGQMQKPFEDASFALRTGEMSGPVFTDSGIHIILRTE

Ac-K(Biotin)AA[2Thi][pT]P[Bip]Q-NH2 [peptide 2] and B1 are within 1.5-fold of each other in “IC50(µM), blockade of the PPIase activity of hPin1, protease free PPIase assay” value (“IC50(µM), blockade … protease free PPIase assay” below): 22 µM for the first, 20 µM for the second.

Going from Ac-K(Biotin)AA[Bta][pT]P[Cha]Q-NH2 [peptide 3] to B2, the “IC50(µM), blockade … protease free PPIase assay” value falls from over 50 µM to 30 µM.

First: B3
Second: Ac-K(Biotin)AA[Bip][pT]P[Bta]Q-NH2 [peptide 5]
The “IC50(µM), blockade … protease free PPIase assay” value of the first is 1.7-fold higher: 25 µM for the first, 15 µM for the second.

Compared with B4, Ac-K(Biotin)AA[Cha][pT][NMeA][2Nal]Q-NH2 [peptide 11] is 2.1-fold lower in “IC50(µM), blockade … protease free PPIase assay” value: 15 µM for the first, 7 µM for the second.

Compared with Ac-K(Biotin)AA[Bip][pT]P[2Nal]Q-NH2 [peptide 6], B5 is 2.2-fold lower in “IC50(µM), blockade … protease free PPIase assay” value: 18 µM for the first, 8 µM for the second.

Going from Ac-K(Biotin)AA[2Nal][pT]P[Cha]Q-NH2 [peptide 8] to Ac-K(Biotin)AA[Phe(4-tBu)][pT][NMeA][2Nal]Q-NH2 [peptide 9], the “IC50(µM), blockade … protease free PPIase assay” value falls from over 50 µM to 10 µM.

For Ac-K(Biotin)AA[2Nal][pT]P[Tle]Q-NH2 [peptide 7], the “IC50(µM), blockade … protease free PPIase assay” value was over 50 µM.

Molecular target: T1, hPin1 (Homo sapiens, UniProt Q13526)
T1 construct: The protease free assay ensures reliable measurement of IC50 values for the full-length hPin1
Test: Protease free PPIase assay, hPin1
Type: biochemical
Settings: blockade of PPIase activity of full-length hPin1, protease free assay, 10° C.; read-out: IC50
Experimental: Protein concentrations were determined using the extinction coefficient ε280=21030 M^−1 cm^−1 for hPin1, ε280=6979 M^−1 cm^−1 for the hPin1 PPIase domain, ε280=21030 M^−1 cm^−1 for XlPin1, ε280=8250 M^−1 cm^−1 for hPar14 and ε280=8250 M^−1 cm^−1 for hCyp18. Extinction coefficients were calculated using the program ProtParam Tool at ExPASy (SIB, Switzerland). All measurements were done at 10° C. in 35 mM Hepes buffer (pH 7.8).
The determination of the kinetic constants of the cis/trans isomerization within the protease-free system was performed using fluorescence based measurements (Garcia-Echeverria et al., 1993, Zhang et al., 2002) on a Hitachi F-3010 fluorescence spectrophotometer with H-Abz-Ala-Glu-Pro-Phe-NH-Np (SEQ ID NO: 2) as substrate. The substrate stock solution was 12 mM in anhydrous trifluoroethanol/0.55 M LiCl. Measurements were initiated by addition of the substrate (final concentration 10 μM) to a pre-incubated (15 min) mixture of 8.8 nM hPin1 or 7.1 nM XlPin1 and respective inhibitory peptide of desired concentrations. The excitation wavelength was 320 nm (spectral bandwidth 3 nm) and emission was detected at 420 nm (spectral bandwidth 10 nm).
Data analysis was performed by single-exponential nonlinear regression using the SigmaPlot Scientific Graphing System Version 5.00 (Jandel Corp.). The apparent first order rate constant kobs was computed by nonlinear regression of the progress curve obtained for the respective measurement. The rate constant k0 was determined in the absence of Pin1. The first order rate constants kenz was calculated from the equation kenz=kobs−k0. IC50 and Ki values were determined by fitting the first order rate constants kenz against the concentration of the inhibitory peptide by nonlinear regression according to Schutkowski et al., 1995 or a model for tight binding inhibitors (Morrison, 1969).
The protease free assay ensures reliable measurement of IC50 values for the full-length hPin1.

T1 sequence (Q13526 whole entry): as above

First: CC(=O)N[C@@H](CCCCNC(=O)CCCC[C@@H]1SC[C@@H]2NC(=O)N[C@@H]21)C(=O)N[C@@H](C)C(=O)N[C@@H](C)C(=O)N[C@@H](Cc1ccc2ccccc2c1)C(=O)N[C@H](C(=O)N1CCC[C@H]1C(=O)N[C@H](C(=O)N[C@@H](CCC(N)=O)C(N)=O)C(C)(C)C)[C@@H](C)OP(=O)(O)O [Peptide 7] (Ac-K(Biotin)AA[2Nal][pT]P[Tle]Q-NH2)
Second: CC(=O)N[C@@H](CCCCNC(=O)CCCC[C@@H]1SC[C@@H]2NC(=O)N[C@@H]21)C(=O)N[C@@H](C)C(=O)N[C@@H](C)C(=O)N[C@@H](Cc1ccc(-c2ccccc2)cc1)C(=O)N[C@H](C(=O)N1CCC[C@H]1C(=O)N[C@@H](Cc1csc2ccccc12)C(=O)N[C@@H](CCC(N)=O)C(N)=O)[C@@H](C)OP(=O)(O)O [Peptide 5] (Ac-K(Biotin)AA[Bip][pT]P[Bta]Q-NH2)
The IC50 of the first is higher: over 50 µM for the first, 15 µM for the second. The second is the more potent here.

Going from CC(=O)N[C@@H](CCCCNC(=O)CCCC[C@@H]1SC[C@@H]2NC(=O)N[C@@H]21)C(=O)N[C@@H](C)C(=O)N[C@@H](C)C(=O)N[C@@H](Cc1cccs1)C(=O)N[C@H](C(=O)N(C)[C@@H](C)C(=O)N[C@@H](Cc1ccc2ccccc2c1)C(=O)N[C@@H](CCC(N)=O)C(N)=O)[C@@H](C)OP(=O)(O)O [Peptide 10] (Ac-K(Biotin)AA[2Thi][pT][NMeA][2Nal]Q-NH2) to “Ac-Lys(Nε-biotinoyl)-Ala-Ala-Xaa-Thr(PO3H2)-Yaa-Zaa-Gln-NH2 with Xaa Bth, Yaa Pro, Zaa Cha [Peptide 3]”, the IC50 rises from 15 µM to over 50 µM. The first is the more potent here.

CC(=O)N[C@@H](CCCCNC(=O)CCCC[C@@H]1SC[C@@H]2NC(=O)N[C@@H]21)C(=O)N[C@@H](C)C(=O)N[C@@H](C)C(=O)N[C@@H](Cc1csc2ccccc12)C(=O)N[C@H](C(=O)N1CCC[C@H]1C(=O)N[C@@H](Cc1ccc2ccccc2c1)C(=O)N[C@@H](CCC(N)=O)C(N)=O)[C@@H](C)OP(=O)(O)O [Peptide 4] (Ac-K(Biotin)AA[Bta][pT]P[2Nal]Q-NH2) and CC(=O)N[C@@H](CCCCNC(=O)CCCC[C@@H]1SC[C@@H]2NC(=O)N[C@@H]21)C(=O)N[C@@H](C)C(=O)N[C@@H](C)C(=O)N[C@@H](Cc1ccccc1)C(=O)N[C@H](C(=O)N(C)[C@@H](C)C(=O)N[C@@H](Cc1csc2ccccc12)C(=O)N[C@@H](CCC(N)=O)C(N)=O)[C@@H](C)OP(=O)(O)O [Peptide 12] (Ac-K(Biotin)AAF[pT][NMeA][Bta]Q-NH2) are the same in IC50: 20 µM for the first, 20 µM for the second.

CC(=O)N[C@@H](CCCCNC(=O)CCCC[C@@H]1SC[C@@H]2NC(=O)N[C@@H]21)C(=O)N[C@@H](C)C(=O)N[C@@H](C)C(=O)N[C@@H](Cc1ccc2ccccc2c1)C(=O)N[C@H](C(=O)N1CCC[C@H]1C(=O)N[C@@H](CC1CCCCC1)C(=O)N[C@@H](CCC(N)=O)C(N)=O)[C@@H](C)OP(=O)(O)O [Peptide 8] (Ac-K(Biotin)AA[2Nal][pT]P[Cha]Q-NH2) gave an IC50 of over 50 µM.

Same assay, conditions: compared with peptide 15

With CC(=O)N[C@@H](CCCCNC(=O)CCCC[C@@H]1SC[C@@H]2NC(=O)N[C@@H]21)C(=O)N[C@@H](C)C(=O)N[C@@H](C)C(=O)N[C@@H](Cc1csc2ccccc12)C(=O)N[C@H](C(=O)N1CCC[C@H]1C(=O)N[C@@H](Cc1ccc2ccccc2c1)C(=O)N[C@@H](CCC(N)=O)C(N)=O)[C@@H](C)OP(=O)(O)O [Peptide 4] (Ac-K(Biotin)AA[Bta][pT]P[2Nal]Q-NH2) the “fold decrease of inhibition, prolyl residue at Yaa versus peptide 15” value was 100 fold.
